# Results from the supplement of paper PMC9112550, “Optimization of the antimicrobial peptide Bac7 by deep mutational scanning” (BMC Biology, 2022).
# Tested on: Escherichia coli TOP10
# Test: shrunken log2 fold change of peptide-encoding DNA abundance (4.5 h post-induction vs induction); higher = less antimicrobial activity (less host growth inhibition)
# Conditions: time post-induction: 4.5 h; library: site-saturation at positions 5, 18, 19, 20
# 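Also: peptides expressed intracellularly from a pBAD plasmid library in pooled LB shake-flask culture, induced with 0.3% L-arabinose, DNA abundance read by NGS, three biological replicates, DESeq2 with apeglm shrinkage.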
row,Sequence,shrunken log2 fold change
1,RRIRYRPPRLPRPRPRPQYMPRP,-0.192
2,RRIRKRPPRLPRPRPRPNLPPRP,0.118
3,RRIRWRPPRLPRPRPRPSREPRP,0.807
4,RRIRARPPRLPRPRPRPPMNPRP,0.134
5,RRIRSRPPRLPRPRPRPCSAPRP,-0.0813
6,RRIRMRPPRLPRPRPRPDELPRP,2.12
7,RRIRMRPPRLPRPRPRPEQQPRP,-0.0233
8,RRIRIRPPRLPRPRPRPMINPRP,-0.714
9,RRIRVRPPRLPRPRPRPMQAPRP,-0.0023
10,RRIRRRPPRLPRPRPRPQEVPRP,-0.00192
11,RRIRERPPRLPRPRPRPYEIPRP,0.0169
12,RRIRHRPPRLPRPRPRPNRGPRP,-0.123
13,RRIRNRPPRLPRPRPRPWDDPRP,0.0288
14,RRIRFRPPRLPRPRPRPRLTPRP,-0.212
15,RRIRRRPPRLPRPRPRPGCLPRP,0.702
16,RRIRDRPPRLPRPRPRPVQPPRP,0.196
17,RRIRWRPPRLPRPRPRPKHFPRP,-0.0487
18,RRIRLRPPRLPRPRPRPAREPRP,0.678
19,RRIRHRPPRLPRPRPRPYKFPRP,-0.0481
20,RRIRKRPPRLPRPRPRPLKIPRP,2.15
21,RRIRCRPPRLPRPRPRPMCPPRP,-0.312
22,RRIRFRPPRLPRPRPRPRWLPRP,0.269

row,Sequence,shrunken log2 fold change
1,RRIRHRPPRLPRPRPRPLWAPRP,0.222
2,RRIRERPPRLPRPRPRPNCKPRP,-0.832
3,RRIRDRPPRLPRPRPRPWGDPRP,0.13
4,RRIRSRPPRLPRPRPRPWRNPRP,-0.0428
5,RRIRERPPRLPRPRPRPIQRPRP,0.146
6,RRIRSRPPRLPRPRPRPAMRPRP,0.588
7,RRIRPRPPRLPRPRPRPQVYPRP,0.962
8,RRIRHRPPRLPRPRPRPRKFPRP,0.15
9,RRIRSRPPRLPRPRPRPGGYPRP,2.83
10,RRIRSRPPRLPRPRPRPHWMPRP,0.0168
11,RRIRHRPPRLPRPRPRPNCMPRP,-0.0153
12,RRIRVRPPRLPRPRPRPKCVPRP,-0.0921
13,RRIRCRPPRLPRPRPRPRNDPRP,-0.191
14,RRIRMRPPRLPRPRPRPSPPPRP,0.74
15,RRIRERPPRLPRPRPRPISPPRP,-0.356
16,RRIRPRPPRLPRPRPRPKTNPRP,0.0176
17,RRIRSRPPRLPRPRPRPYHEPRP,-1.19
18,RRIRYRPPRLPRPRPRPGKLPRP,-0.0944
19,RRIRCRPPRLPRPRPRPASWPRP,0.219
20,RRIRKRPPRLPRPRPRPSNEPRP,-0.183
21,RRIRGRPPRLPRPRPRPEKVPRP,0.417
22,RRIRDRPPRLPRPRPRPVSQPRP,-0.0185

row,Sequence,shrunken log2 fold change
1,RRIRWRPPRLPRPRPRPMDEPRP,0.0255
2,RRIRPRPPRLPRPRPRPSVMPRP,-0.123
3,RRIRNRPPRLPRPRPRPFPPPRP,-0.32
4,RRIRQRPPRLPRPRPRPVMSPRP,-0.215
5,RRIRIRPPRLPRPRPRPKHGPRP,-0.113
6,RRIRNRPPRLPRPRPRPHISPRP,-0.0617
7,RRIRERPPRLPRPRPRPFCGPRP,-0.058
8,RRIRERPPRLPRPRPRPLYDPRP,-1.62
9,RRIRDRPPRLPRPRPRPHTRPRP,0.013
10,RRIRERPPRLPRPRPRPVPDPRP,0.268
11,RRIRKRPPRLPRPRPRPWLDPRP,0.296
12,RRIRIRPPRLPRPRPRPICNPRP,-0.607
13,RRIRTRPPRLPRPRPRPFSHPRP,-0.399
14,RRIRWRPPRLPRPRPRPFRPPRP,-0.165
15,RRIRDRPPRLPRPRPRPSNCPRP,-0.576
16,RRIRRRPPRLPRPRPRPIKIPRP,-0.0791
17,RRIRERPPRLPRPRPRPHAMPRP,0.0454
18,RRIRRRPPRLPRPRPRPDCSPRP,-0.27
19,RRIRARPPRLPRPRPRPMYNPRP,-0.48
20,RRIRMRPPRLPRPRPRPMARPRP,0.465
21,RRIRERPPRLPRPRPRPVYWPRP,0.0789
22,RRIRRRPPRLPRPRPRPYCMPRP,-0.546

row,Sequence,shrunken log2 fold change
1,RRIRRRPPRLPRPRPRPKSTPRP,0.18
2,RRIRNRPPRLPRPRPRPAVGPRP,0.543
3,RRIRQRPPRLPRPRPRPDIMPRP,-0.136
4,RRIRLRPPRLPRPRPRPPDTPRP,0.257
5,RRIRERPPRLPRPRPRPQKLPRP,-0.69
6,RRIRHRPPRLPRPRPRPEPRPRP,0.137
7,RRIRWRPPRLPRPRPRPGEHPRP,0.232
8,RRIRSRPPRLPRPRPRPWRHPRP,-0.106
9,RRIRYRPPRLPRPRPRPMIKPRP,0.0227
10,RRIRKRPPRLPRPRPRPPIDPRP,0.185
11,RRIRGRPPRLPRPRPRPCTLPRP,0.321
12,RRIRLRPPRLPRPRPRPDVTPRP,-0.0876
13,RRIRMRPPRLPRPRPRPDKAPRP,-0.041
14,RRIRFRPPRLPRPRPRPQVEPRP,-0.0419
15,RRIRTRPPRLPRPRPRPDNLPRP,-0.479
16,RRIRMRPPRLPRPRPRPTGCPRP,0.588
17,RRIRLRPPRLPRPRPRPELAPRP,0.0176
18,RRIRDRPPRLPRPRPRPVASPRP,0.0264
19,RRIRDRPPRLPRPRPRPQWAPRP,0.326
20,RRIRVRPPRLPRPRPRPFCEPRP,-0.197
21,RRIRWRPPRLPRPRPRPIIEPRP,-0.273
22,RRIRARPPRLPRPRPRPHGGPRP,0.301

row,Sequence,shrunken log2 fold change
1,RRIRARPPRLPRPRPRPFGNPRP,-0.148
2,RRIRVRPPRLPRPRPRPMWYPRP,-0.62
3,RRIRYRPPRLPRPRPRPNVAPRP,-0.0308
4,RRIRMRPPRLPRPRPRPWGCPRP,0.311
5,RRIRNRPPRLPRPRPRPCTKPRP,0.00474
6,RRIRARPPRLPRPRPRPHSCPRP,0.0724
7,RRIRQRPPRLPRPRPRPWDKPRP,-0.153
8,RRIRWRPPRLPRPRPRPNGLPRP,0.145
9,RRIRDRPPRLPRPRPRPVNMPRP,-0.296
10,RRIRYRPPRLPRPRPRPGCVPRP,-0.202
11,RRIRCRPPRLPRPRPRPNLKPRP,-0.585
12,RRIRNRPPRLPRPRPRPSHDPRP,-0.516
13,RRIRMRPPRLPRPRPRPECIPRP,1.61
14,RRIRMRPPRLPRPRPRPMHVPRP,-0.207
15,RRIRSRPPRLPRPRPRPGSTPRP,0.0972
16,RRIRDRPPRLPRPRPRPLSWPRP,0.488
17,RRIRQRPPRLPRPRPRPCKIPRP,-0.0788
18,RRIRMRPPRLPRPRPRPESWPRP,1.52
19,RRIRARPPRLPRPRPRPVSLPRP,-0.0174
20,RRIRGRPPRLPRPRPRPSNRPRP,0.113
21,RRIRWRPPRLPRPRPRPPADPRP,0.846
